# Where a chain is given by its changes, count along the chain named. Names may count otherwise.
# B1: 14E4 Fab (Fab, V domains shown)
# VH: not shown
# VL: EIVLTQSPGTLSLSPGERATLSCRASQSVSSSYLAWYQQKPGQAPRLLIYGASSRATGIPDRFSGSGSGTDSTLTISRLEPEDFAVYYCQQPTSSPITFGQGTKVEIK
# notes: bacterial Fab
# B2: 9D11 Fab (Fab, V domains shown)
# VH: QVQLVQSGAEVKKPGASVKVSCKASGYTFTSYYMHWVRQAPGQGLEWMGIINPSGGPTSYAQKFQGRVTMTRDTSTSTVYMELSSLRSEDTAVYYCARGDFAWLDYWGQGTLVTVSS
# VL: not shown
# notes: bacterial Fab
# B3: 16D5 G49S/K53A TCB (2+1 inverted, common light chain) (bispecific antibody, V domains shown)
# VH 1: not shown
# VL: QTVVTQEPSLTVSPGGTVTLTCGSSTGAVTTSNYANWVQQKPGQAPRGLIGGTNARAPGTPARFSGSLLGGKAALTLSGVQPEDEAEYYCALWYSNLWVFGGGTKLTVL
# VH 2: not shown
# B4: 20G6 IgG (antibody, V domains shown)
# VH: QVQLVQSGAEVKKPGASVKVSCKASGYTFTSYYMHWVRQAPGQGLEWMGIINPSGGSTSYAQKFQGRVTMTRDTSTSTVYMELSSLRSEDTAVYYCARGEWIRYYHFDYWGQGTLVTVSS
# VL: B3 VL with T2A, Q40E, P46F, A55K, V80A
# notes: human IgG1
# B5: 19H3 IgG (antibody, V domains shown)
# VH: B4 VH with G99T, E100G, I102S, Y104W, Y105G, H106Y, F107M
# VL: B3 VL with T2A, Q40E, P46F, A55K, V80A
# notes: human IgG1
# B6: 36F2 Fab (Fab, V domains shown)
# VH: QVQLVQSGAEVKKPGASVKVSCKASGYTFTSYYMHWVRQAPGQGLEWMGIINPSGGSTSYAQKFQGRVTMTHDTSTSTVYMELSSLRSEDTAVYYCARSFFTGFHLDYWGQGTLVTVSS
# VL: EIVLTQSPGTLSLSPGERATLSCRASQSVSSSYLAWYQQKPGQAPRLLIYGASSRATGIPDRFSGSGSGTDFTLTISRLEPEDFAVYYCQQYTNEHYYTFGQGTKVEIK
# notes: bacterial Fab
# What was measured:
# [1] = molecular target: T1, recombinant biotinylated monomeric Fc fusion of human Folate Receptor 1 (huFolR1 ECD-AcTev-Fcknob-Avi tag … (human, UniProt P0DOX5 223-449 = IgG part, biotin on the C-terminal Avi tag)); experiment: SPR ProteOn, Fab analyte on immobilized antigen-Fc
# T1 construct: also called huFolR1-Fc; human FolR1-Fc
# Experimental: (§1) Immobilization of antigens (ligand): Recombinant antigens were diluted with PBST (10 mM phosphate, 150 mM sodium chloride pH 7.4, 0.005% Tween 20) to 10 μg/ml, then injected at 30 μl/minute in vertical orientation. Injection of analytes: For ‘one-shot kinetics’ measurements, injection direction was changed to horizontal orientation, two-fold dilution series of purified Fab (varying concentration ranges) were injected simultaneously along separate channels 1-5, with association times of 150 or 200 s, and dissociation times of 200 or 600 s, respectively. Buffer (PBST) was injected along the sixth channel to provide an “in-line” blank for referencing. Association rate constants (kₒₙ) and dissociation rate constants (koff) were calculated using a simple one-to-one Langmuir binding model in ProteOn Manager v3.1 software by simultaneously fitting the association and dissociation sensorgrams. The equilibrium dissociation constant (KD) was calculated as the ratio koff/kₒₙ.
# [2] = molecular target: T2, recombinant biotinylated monomeric Fc fusion of human Folate Receptor 3 (hu FolR3 ECD-AcTev-Fcknob-Avi tag … (human, UniProt P0DOX5 223-449 = IgG part, biotin on the C-terminal Avi tag)); experiment: SPR ProteOn, Fab analyte on immobilized antigen-Fc
# T2 construct: also called FolR3-Fc
# Experimental: as §1
# [3] = molecular target: T3, recombinant biotinylated monomeric Fc fusion of cynomolgus Folate Receptor 1 (cy FolR1 ECD-AcTev-Fcknob-Avi … (cynomolgus, UniProt P0DOX5 223-449 = IgG part, biotin on the C-terminal Avi tag)); experiment: SPR ProteOn, Fab analyte on immobilized antigen-Fc
# T3 construct: also called cyFolR1-Fc; cyno FolR1
# Experimental: as §1
# [4] = molecular target: T4, recombinant biotinylated monomeric Fc fusion of human Folate Receptor 2 (hu FolR2 ECD-AcTev-Fcknob-Avi tag … (human, UniProt P0DOX5 223-449 = IgG part, biotin on the C-terminal Avi tag)); experiment: SPR ProteOn, Fab analyte on immobilized antigen-Fc
# T4 construct: also called FolR2-Fc
# Experimental: as §1
# [5] = molecular target: T5, recombinant biotinylated monomeric Fc fusion of murine Folate Receptor 1 (mu FolR1 ECD-AcTev-Fcknob-Avitag … (murine, UniProt P0DOX5 223-449 = IgG part, biotin on the C-terminal Avi tag)); experiment: SPR ProteOn, Fab analyte on immobilized antigen-Fc
# T5 construct: also called muFolR1-Fc; murine FolR1
# Experimental: as §1
# [6] = molecular target: T1, recombinant biotinylated monomeric Fc …; experiment: SPR Biacore, avidity (bivalent, apparent KD), antigen-Fc on SA chip
# Experimental: (§2) All SPR experiments were performed on a Biacore T200 at 25° C. with HBS-EP as running buffer (0.01 M HEPES pH 7.4, 0.15 M NaCl, 3 mM EDTA, 0.005% Surfactant P20, Biacore, GE Healthcare). The molecules used for affinity and avidity determination are described in Table 45.
# (§3) Recombinant biotinylated monomeric Fc fusions of human, cynomolgus and murine Folate Receptor 1 (FolR1-Fc) were directly coupled on a SA chip using the standard coupling instruction (Biacore, GE Healthcare). The immobilization level was about 200-300 RU. […] The dissociation was monitored for 240 or 600 seconds. The chip surface was regenerated after every cycle using a double injection of 30 sec 10 mM Glycine-HCl pH 1.5. Bulk refractive index differences were corrected for by subtracting the response obtained on reference flow cell immobilized with recombinant biotinylated murine IL2R Fc fusion (unrelated Fc fused receptor). The binding curves resulting from the bivalent binding of the T cell bispecifics were approximated to a 1:1 Langmuir binding (even though it is a 1:2 binding) and fitted with that model to get an apparent KD representing the avidity of the bivalent binding. The apparent avidity constants for the interactions were derived from the rate constants of the fitting using the Bia Evaluation software (GE Healthcare).
# [7] = molecular target: T3, recombinant biotinylated monomeric Fc …; experiment: as above
# Experimental: as §2, §3
# [8] = molecular target: T1, recombinant biotinylated monomeric Fc …; experiment: SPR Biacore, avidity (bivalent)
# [9] = molecular target: T1, recombinant biotinylated monomeric Fc …; experiment: SPR Biacore, affinity (monovalent), antibody captured via anti-Fab
# Experimental: as §2
# (§4) For affinity measurement, direct coupling of around 12000 resonance units (RU) of the anti-human Fab specific antibody (Fab capture kit, GE Healthcare) was performed on a CM5 chip at pH 5.0 using the standard amine coupling kit (GE Healthcare). Anti-FolR1 T cell bispecifics were captured at 20 nM with a flow rate of 10 μl/min for 40 sec, the reference flow cell was left without capture. […] The dissociation phase was monitored for 300 s and triggered by switching from the sample solution to HBS-EP. The chip surface was regenerated after every cycle using a double injection of 60 sec 10 mM Glycine-HCl pH 2.1. Bulk refractive index differences were corrected for by subtracting the response obtained on the reference flow cell 1. The affinity constants for the interactions were derived from the rate constants by fitting to a 1:1 Langmuir binding using the Bia Evaluation software (GE Healthcare). For low affinity kinetics with association and dissociation phases too fast to be fitted by the 1:1 Langmuir binding model, the steady state analysis model was applied using the Bia Evaluation software (GE Healthcare). The steady state analysis gives the KD of the binding reaction at equilibrium.
# [10] = molecular target: T6, human FolR1 expressed on cells (HeLa, SKOV3, HT-29, transfected HEK cells) (human, UniProt P15328 25-234); experiment: cell-based or functional assay
# [11] = molecular target: T6, human FolR1 expressed on cells (HeLa, …); experiment: cell-based or functional assay; remark: listed apart in the source
# [12] = molecular target: T1, recombinant biotinylated monomeric Fc …; experiment: SPR Biacore, affinity (monovalent)
# [13] = molecular target: T3, recombinant biotinylated monomeric Fc …; experiment: SPR Biacore, affinity (monovalent), antibody captured via anti-Fab, steady state analysis
# Experimental: as §2, §4
# [14] = molecular target: T1, recombinant biotinylated monomeric Fc …; experiment: SPR Biacore, single injection on immobilized antigen-Fc
# How it was run: (§5)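 Biacore T200 at 25 °C in HBS-EP (HEPES pH 7.4). Biotinylated FolR-Fc fusions captured on SA chip at about 300-400 RU. IgGs injected once at 500 nM for 60 s to assess cross-reactivity and specificity.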
# [15] = molecular target: T2, recombinant biotinylated monomeric Fc …; experiment: as above
# How it was run: as §5
# [16] = molecular target: T3, recombinant biotinylated monomeric Fc …; experiment: as above
# How it was run: as §5
# [17] = molecular target: T4, recombinant biotinylated monomeric Fc …; experiment: as above
# How it was run: as §5
# T6 sequence (P15328 25-234): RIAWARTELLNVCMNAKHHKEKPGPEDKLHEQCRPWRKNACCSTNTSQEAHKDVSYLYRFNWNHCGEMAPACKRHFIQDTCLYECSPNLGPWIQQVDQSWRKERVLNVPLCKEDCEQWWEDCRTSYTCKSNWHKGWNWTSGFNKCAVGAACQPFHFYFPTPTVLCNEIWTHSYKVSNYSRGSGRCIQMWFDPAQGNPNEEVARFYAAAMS
binder,measurement,setting,value
B1,binding result,[1],no binding
same,binding result,[2],no binding
same,binding result,[3],no binding
same,binding result,[4],no binding
B2,Kd,[1],8.64 nM
same,binding result,[5],no binding
same,binding result,[2],no binding
same,Kd,[3],5.29 nM
same,binding result,[4],no binding
B3,Kd,[6],40 nM
same,koff,[6],0.00586 s⁻¹
same,kon,[6],132000 M⁻¹ s⁻¹
same,Kd,[7],70 nM
same,koff,[7],0.0256 s⁻¹
same,kon,[7],373000 M⁻¹ s⁻¹
same,fold lower avidity than 16D5 WT (3 nM),[8],13 fold
same,Kd,[9],1700 nM
same,koff,[9],0.0159 s⁻¹
same,kon,[9],9170 M⁻¹ s⁻¹
same,"EC50 of T-cell killing of Hela, 24 h",[10],0.0044 nM
same,"EC50 of T-cell killing of SKov-3, 24 h",[10],1.7 nM
same,"EC50 of T-cell killing of HT-29, 48 h",[11],1.79 nM
same,"EC50 of T-cell killing of Hela, 48 h",[11],0.0005 nM
same,"EC50 of T-cell killing of SKov-3, 48 h",[11],0.95 nM
same,fold lower affinity than 16D5 WT (57 nM),[12],30 fold
same,Kd,[13],1900 nM
B4,binding result,[14],no binding (tested: 500 nM)
same,binding result,[15],no binding (tested: 500 nM)
same,binding result,[16],no binding (tested: 500 nM)
same,binding result,[17],no binding (tested: 500 nM)
B5,binding result,[14],no binding (tested: 500 nM)
same,binding result,[15],no binding (tested: 500 nM)
same,binding result,[16],no binding (tested: 500 nM)
same,binding result,[17],no binding (tested: 500 nM)
B6,Kd,[1],1810 nM
same,Kd,[5],737 nM
same,binding result,[2],no binding
same,Kd,[3],1640 nM
same,binding result,[4],no binding
